Results taken from the DeepSol protein solubility set.

Experiment: soluble on expression in E. coli; label from the status in PepcDB or PDB records

Sequence | soluble on expression in E. coli
MGSDKIHHHHHHMIKRRYMRTRQLKPGMIIDQVIKDPTGRNLVVQGSAIDDYIISSLLKLGIMSVYIREGNADPDDPDAILSPKAAAMVKQLRTDDRSKVTLSDSVRQRVSTGVQYIFNNTNSEELTQATNQIADSLMEAINENDAIAVDISSLKTSDEYTFKHSVDVATISMILAKQMKLPDNEIHDIGVSGLLHDIGKTMIPNEILNKPGRLTDDEFNIMKKHSVYGYNMLKDRKDLNNSILMGVLQHHERIDGTGYPLGFDAPKICQFAKILSVADVYDALVTKRPYKDALSQRDAVEMLMSMTNQLDIGVMRAFMSSMILYPVDSIVQLSNGEKARVVKNSEYYILRPTVVGVDSGRVYNLGNDLKCASIIIL | not soluble
MGSDKIHHHHHHSDDINQKVAEQLAQKAQSSSLGYDIVESLTVEVGPRLAGSEQDKVAVDWAIAKLQSLGFDRVYKEPVTVPVWRRGIAKASILSPFPQPLVVTALGGSIATPAQGLSATIVRFDTLQDLQNAEAGSLNDKIAFIDAKTERHRDGKGYGQTASGRSRGAVAAAEKGAVGIIIRSIGTDHDRMAHTGMMRYEEGVTAIPAAAISNPDADLINAMLKRDKEVVISLELGSERRGETTSYNVIAEVKGSTKADEIVLIGAHLDSWDEGTGAIDDGAGVAIVTAAAKHILDLPQKPERTIRVVLYAAEELGLLGGKTYAKEHEAELEKHYIAAESDFGAGPIYQIDWRVADTAHSPVINAMKVAEPLGVAAGNNKASGGPDVSMLPALGVPVASLRQDGSDYFDYHHTPNDTLDKINPEALAQNVAVYAQFAWVMANSKVELRPLPPKE | not soluble
GSHMDHLPMPKFGPLAGLRVVFSGIEIAGPFAGQMFAEWGAEVIWIENVAWADTIRVQPNYPQLSRRNLHALSLNIFKDEGREAFLKLMETTDIFIEASKGPAFARRGITDEVLWQHNPKLVIAHLSGFGQYGTEEYTNLPAYNTIAQAFSGYLIQNGDVDQPMPAFPYTADYFSGLTATTAALAALHKVRETGKGESIDIAMYEVMLRMGQYFMMDYFNGGEMCPRMSKGKDPYYAGCGLYKCADGYIVMELVGITQIEECFKDIGLAHLLGTPEIPEGTQLIHRIECPYGPLVEEKLDAWLATHTIAEVKERFAELNIACAKVLTVPELESNPQYVARESITQWQTMDGRTCKGPNIMPKFKNNPGQIWRGMPSHGMDTAAILKNIGYSENDIQELVSKGLAKVED | soluble
MGSDKIHHHHHHMQQHPVVSREEWLVKRRALLAREKEAIHQRDAITAERLALPWVKVDTRYVFDTASGKKTLADLFDGRSQLMIYHFMLGPGWAAGCPGCSLVADHLGGTLAHLNHHDVTLIAVSRAPLPEIEAYRQRMGWQFPWASSFGTTFNHDFRVSFTPDELASGAVDYNYTSTQSAQANDELPGLSAFYKDAAGNVYHTYSTYARGLEDLIGTFLILDRAPKGRNESGPMEWVRRHDEYGDAPKANACYEG | not soluble
MALVIAGERSGVGKTTVTLTLLASLCRRSAIVQSFKVGPDYIDPMFHTYVTGRACRNLDPVLTSEAYVQQCFARHYQESEYALVEGVMGLFDGIGRQEAGGQGAGGRENNFSTSHSALTTDFASTAHVARLLDLPVVLVIDCSRLSGSVAAIAHGYCSFDPRIKMAGVVLNRVGSDRHLSLLQDALKPLQLPILGVLRRQDDITIPDRHLGLIPTAELPELNAVINRLADLGDTCFDWQNLLPLLQAKEVGGREQGAGSRGQGAGEAGEAGGELTARFSPNPQSPIPNPQSPVPHPPKIAVARDRAFNFYYQDNLDLLQQLGAELVFWSPLTDGELPSGVRGMYFGGGFPEVFASQLAENSSARDAVKQAILAGMPTIAECGGLMYLCEQIIDFEGQSWPMVGVLPTSAAMGGRLTLGYRRAVALQDSLLVNVGTHIYGHEFHRSRLITAPTQPLFETYRYDCPENMGCEGWGFPKNIHASYVHLHWGESGEIPRQFIQQCAYFGETIDLVHMYLEHHHHHH | not soluble
MGSDKIHHHHHHMSDSKWKYNIIYNMEIEVLTGLHIGGSNEELKIGGTDSPVITTKYLINNVEPCDLPYIPGSSIKGKIRSLLENVDYKGKNGDDIVSKMFGYYPNAGEGIKRLTRLIIRDAFLDDGHIKSAEDARNVIEIKSENKIDPIESKATPRFIERVRRGTKFKGKIILSIYEGDNEEEMIKCLKTGISLLEDSYLGGNGTRGYGSVKITLGEPIKKGIDKYEENIKDNTSNGSEN | not soluble
MAHHHHHHMSDLDKIRSKLEALKSKTEVKTDERIEIAKKNDPFNDLKVHILNVLDETRKCIREKESLQNVHGNNIEVIKRGNIIYNNMKNLDTYFLKLEEILKKQEKKKYAYSREELFDKNETFELLKRQIYECKKLSNYEHIKDTCVMDFSDFKNKQQVESKS | soluble
MNNETSGKETASAPLCSPKLPVEKVQRIAKNDPEYMDTSDDAFVATAFATEFFVQVLTHESLHRQQQQQQQQVPPLPDELTLSYDDISAAIVHSSDGHLQFLNDVIPTTKNLRLLVEENRVRYTTSVMPPNEVYSAYVVNDTAPKPNIVEIDLDNDEDDDEDVTDQE | not soluble
MSLSRFQFVADHLHAFEVKWLCAGVEVARSSFYAWLAGAEGRAARKAADEALAARIRMVHDEDNTYGAPRITAELNDSVPDGERVNHKRVARVMRDAGIAGYRRRRRVKTTTPDPAKQKVPDLLKRDFTAPAPNEKYVGDITYLPLATGSNLYMATVIDCFSGRVAGWAIAEHMRTELVEDALKAADALRGSLAGAVFHSDHGSQYTSTDFASLCEKLGVTQSMGGVGSSADNALAESFNASLKREVLQDRSHWPDSATCRRQVFRWLVRYNLRRRHSRCRYSSPVSYERSHAPATLPEAAEGHHHHHH | not soluble
MNHSIPTLRTERLTLRPLAMADFPAYRDFMASPRSTGVGGPYDLPSTWGVFCHDLANWHFFGHGALMIDLGETGECIGQIGINHGPLFPEKELGWLLYEGHEGRGYAAEAAVALRDWAFETLNLPTLVSYVSPQNRKSAAVAERIGGTLDPLAPRSDPEDLVYRYHQVKTA | soluble
MCLVDFGLRFNHKGRHYFKAANGEDIALSLSIGAAMFNGHPDYERLIQIADEALYIAKRRGRNRVELCKASL | not soluble
INYRCPKRVITLINNIRKGDDQNVQVPKEDAIDGFVRLFIVDSNTTDKLELENKIRFQMAMLTHDEDWNIAEEVKTLTLEHDMAASRGGFDEFLLPLSSVSSLRDAALNGTSKNINFITSTLLPFIDAVEKDDSFEVARIIKSGSLLISDSNQSFLLNPIGTLKDIDSNVVEFKKILVNGKVTLHNVLSTIQKFELLSLPDELLVYLSDIEQGEPNEPESDTKLLSDVDKAWGLALNSSIGHVKNYAKYVNETLGYATHQGVKGLEYKRVMAVLDDKFKGFLFDYEKLFGAKDLTKKDIENEDLGKDSALSRTRRLFYVICSRAEQSLAVVAYSNDPIAIEKTAIESEWFSKDEIVLI | not soluble
MRKLWVAFFASLVLAMPSWVSARSHAGGGADVHLPVGHMWKHEGLDEQKWMEMVQKYTPEQEEEWKKVLDERNALRQQLNDENVKQAIKEKCKKMKKEREAALDRLIDQLVDKKITKEQFKKEWKQLHKKKQWMTKEEKQQLHLLHEQTRQAMENNDQEAMKKLLPQWLDHMKKKNERLAKWLQEVKQG | not soluble
MIRYWKLLFSLAVASVLLVGCGTKEHETTQAAKEEQTADDQKPSSDAPSSKNPSPSKEAKEQTSTKKNEEEQRAAGGGQPAASQPTISLSYQDGNQTVTKTATLQTSNNQHFSLYVLEGWTLDAEEPGADVLLHGDAFARIRLLSEGETNYEQLAQEHAQAVDANAARQQTNGLPKPFADAVWYTAQADGVTVHVIASAQPTPMLLTVHAPSNEDVLGAVLAMAATLQKQ | not soluble
MTSLCNKELSDTLVGLYDDYKRGFDIGEELKLCVDLALTLELELSIHRLSETDTVLKKEIIQTLQNRRNSHSNEDETIDETGTIIQMDFKERN | soluble
MSKVPVVGIVAALLPEMGIGFQGNLPWRLAKEMKYFREVTTLTNDNSKQNVVIMGRKTWESIPQKFRPLPKRINVVVSRSFDGELRKVEDGIYHSNSLRNCLTALQSSLANENKIERIYIIGGGEIYRQSMDLADHWLITKIMPLPETTIPQMDTFLQKQELEQRFYDNSDKLVDFLPSSIQLEGRLTSQEWNGELVKGLPVQEKGYQFYFTLYTKKLEHHHHHHHH | soluble
